Patent US20060257938A1, “Method of screening for drugs that block ligand binding to a lipid binding protein” (priority 2005, published 2006)

Assays:
Assay type in all cases: binding
[1] = Probe fluorescence ratio response to arachidonic acid relative to ADIFAB2; details: arachidonic acid; response relative to ADIFAB2
Outline: (§1)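 Fluorescently labeled rat intestinal FABP variants were read at two emission wavelengths, near the unbound maximum (about 420 to 480 nm) and the FFA-bound maximum (about 495 to 580 nm). R = Fλ1/Fλ2 after subtracting probe-free intensity; ΔR = R+agent − R0, normalized to ADIFAB2 (rI-FABP-L72A).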

[2] = Probe fluorescence ratio response to linolenic acid relative to ADIFAB2; details: response relative to ADIFAB2
Outline: as §1

[3] = Probe fluorescence ratio response to linoleic acid relative to ADIFAB2; details: response relative to ADIFAB2
Outline: as §1

[4] = Probe fluorescence ratio response to oleic acid relative to ADIFAB2; details: response relative to ADIFAB2
Outline: as §1

[5] = Probe fluorescence ratio response to palmitic acid relative to ADIFAB2; details: response relative to ADIFAB2
Outline: as §1

B1: 38S, 72A (protein, listed as Rattus norvegicus)
chain: AFDGTWKVDRNENYEKFMEKMGINVVKRKLGAHDNLKSTITQEGNKFTVKESSNFRNIDVVFELGVDFAYSAADGTELTGTWTMEGNKLVGKFKRVDNGKELIAVREISGNELIQTYTYEGVEAKRIFKKE
modifications: PEPTIDE (1)...(131) wild-type rat intestinal fatty acid binding protein
[1]
  DR/DR AA: 1.175
[2]
  DR/DR LNA: 1.295
[3]
  DR/DR LA: 1.286
[4]
  DR/DR OA: 1.235
[5]
  DR/DR PA: 0.724

B2: 31I, 72A (protein, listed as Rattus norvegicus)
chain: AFDGTWKVDRNENYEKFMEKMGINVVKRKLIAHDNLKLTITQEGNKFTVKESSNFRNIDVVFELGVDFAYSAADGTELTGTWTMEGNKLVGKFKRVDNGKELIAVREISGNELIQTYTYEGVEAKRIFKKE
modifications: PEPTIDE (1)...(131) wild-type rat intestinal fatty acid binding protein
[1]
  DR/DR AA: 0.303
[2]
  DR/DR LNA: 0.413
[3]
  DR/DR LA: 0.168
[4]
  DR/DR OA: −0.213
[5]
  DR/DR PA: 0.091

B3: 31V, 72A (protein, listed as Rattus norvegicus)
chain: AFDGTWKVDRNENYEKFMEKMGINVVKRKLVAHDNLKLTITQEGNKFTVKESSNFRNIDVVFELGVDFAYSAADGTELTGTWTMEGNKLVGKFKRVDNGKELIAVREISGNELIQTYTYEGVEAKRIFKKE
modifications: PEPTIDE (1)...(131) wild-type rat intestinal fatty acid binding protein
[1]
  DR/DR AA: 0.395
[2]
  DR/DR LNA: 0.776
[3]
  DR/DR LA: 0.384
[4]
  DR/DR OA: 0.081
[5]
  DR/DR PA: 0.206

B4: 31R, 72A (protein, listed as Rattus norvegicus)
chain: AFDGTWKVDRNENYEKFMEKMGINVVKRKLRAHDNLKLTITQEGNKFTVKESSNFRNIDVVFELGVDFAYSAADGTELTGTWTMEGNKLVGKFKRVDNGKELIAVREISGNELIQTYTYEGVEAKRIFKKE
modifications: PEPTIDE (1)...(131) wild-type rat intestinal fatty acid binding protein
[1]
  DR/DR AA: 0.250
[2]
  DR/DR LNA: 0.437
[3]
  DR/DR LA: 0.405
[4]
  DR/DR OA: 0.227
[5]
  DR/DR PA: 0.342

B5: 31F, 72A (protein, listed as Rattus norvegicus)
chain: AFDGTWKVDRNENYEKFMEKMGINVVKRKLFAHDNLKLTITQEGNKFTVKESSNFRNIDVVFELGVDFAYSAADGTELTGTWTMEGNKLVGKFKRVDNGKELIAVREISGNELIQTYTYEGVEAKRIFKKE
modifications: PEPTIDE (1)...(131) wild-type rat intestinal fatty acid binding protein
[1]
  DR/DR AA: 1.210
[2]
  DR/DR LNA: 1.647
[3]
  DR/DR LA: 1.759
[4]
  DR/DR OA: 1.331
[5]
  DR/DR PA: 1.438

B6: 62W, 72A (protein, listed as Rattus norvegicus)
chain: AFDGTWKVDRNENYEKFMEKMGINVVKRKLGAHDNLKLTITQEGNKFTVKESSNFRNIDVVWELGVDFAYSAADGTELTGTWTMEGNKLVGKFKRVDNGKELIAVREISGNELIQTYTYEGVEAKRIFKKE
modifications: PEPTIDE (1)...(131) wild-type rat intestinal fatty acid binding protein
[1]
  DR/DR AA: 2.206
[2]
  DR/DR LNA: 2.120
[3]
  DR/DR LA: 2.339
[4]
  DR/DR OA: 2.155
[5]
  DR/DR PA: 1.450

B7: 23W, 72A (protein, listed as Rattus norvegicus)
chain: AFDGTWKVDRNENYEKFMEKMGWNVVKRKLGAHDNLKLTITQEGNKFTVKESSNFRNIDVVFELGVDFAYSAADGTELTGTWTMEGNKLVGKFKRVDNGKELIAVREISGNELIQTYTYEGVEAKRIFKKE
modifications: PEPTIDE (1)...(131) wild-type rat intestinal fatty acid binding protein
[1]
  DR/DR AA: 0.618
[2]
  DR/DR LNA: 0.956
[3]
  DR/DR LA: 0.794
[4]
  DR/DR OA: 0.448
[5]
  DR/DR PA: 0.492

B8: 38W, 72A (protein, listed as Rattus norvegicus)
chain: AFDGTWKVDRNENYEKFMEKMGINVVKRKLGAHDNLKWTITQEGNKFTVKESSNFRNIDVVFELGVDFAYSAADGTELTGTWTMEGNKLVGKFKRVDNGKELIAVREISGNELIQTYTYEGVEAKRIFKKE
modifications: PEPTIDE (1)...(131) wild-type rat intestinal fatty acid binding protein
[1]
  DR/DR AA: 1.350
[2]
  DR/DR LNA: 1.336
[3]
  DR/DR LA: 2.413
[4]
  DR/DR OA: 1.583
[5]
  DR/DR PA: 1.552

B9: 62Y, 72A (protein, listed as Rattus norvegicus)
chain: AFDGTWKVDRNENYEKFMEKMGINVVKRKLGAHDNLKLTITQEGNKFTVKESSNFRNIDVVYELGVDFAYSAADGTELTGTWTMEGNKLVGKFKRVDNGKELIAVREISGNELIQTYTYEGVEAKRIFKKE
modifications: PEPTIDE (1)...(131) wild-type rat intestinal fatty acid binding protein
[1]
  DR/DR AA: 1.598
[2]
  DR/DR LNA: 1.395
[3]
  DR/DR LA: 1.545
[4]
  DR/DR OA: 1.439
[5]
  DR/DR PA: 1.037

B10: 70Q, 72A (protein, listed as Rattus norvegicus)
chain: AFDGTWKVDRNENYEKFMEKMGINVVKRKLGAHDNLKLTITQEGNKFTVKESSNFRNIDVVFELGVDFAQSAADGTELTGTWTMEGNKLVGKFKRVDNGKELIAVREISGNELIQTYTYEGVEAKRIFKKE
modifications: PEPTIDE (1)...(131) wild-type rat intestinal fatty acid binding protein
[1]
  DR/DR AA: 1.546
[2]
  DR/DR LNA: 1.622
[3]
  DR/DR LA: 1.819
[4]
  DR/DR OA: 1.604
[5]
  DR/DR PA: 0.868

B11: 14W 72M 117A (protein, listed as Rattus norvegicus)
chain: AFDGTWKVDRNENWEKFMEKMGINVVKRKLGAHDNLKLTITQEGNKFTVKESSNFRNIDVVFELGVDFAYSMADGTELTGTWTMEGNKLVGKFKRVDNGKELIAVREISGNELIQTATYEGVEAKRIFKKE
modifications: PEPTIDE (1)...(131) wild-type rat intestinal fatty acid binding protein
[1]
  DR/DR AA: 0.945
[2]
  DR/DR LNA: 1.286
[3]
  DR/DR LA: 1.009
[4]
  DR/DR OA: 0.706
[5]
  DR/DR PA: 0.515

B12: 36I, 72A (protein, listed as Rattus norvegicus)
chain: AFDGTWKVDRNENYEKFMEKMGINVVKRKLGAHDNIKLTITQEGNKFTVKESSNFRNIDVVFELGVDFAYSAADGTELTGTWTMEGNKLVGKFKRVDNGKELIAVREISGNELIQTYTYEGVEAKRIFKKE
modifications: PEPTIDE (1)...(131) wild-type rat intestinal fatty acid binding protein
[1]
  DR/DR AA: 0.812
[2]
  DR/DR LNA: 1.004
[3]
  DR/DR LA: 0.884
[4]
  DR/DR OA: 0.773
[5]
  DR/DR PA: 0.815

B13: 31E, 72A (protein, listed as Rattus norvegicus)
chain: AFDGTWKVDRNENYEKFMEKMGINVVKRKLEAHDNLKLTITQEGNKFTVKESSNFRNIDVVFELGVDFAYSAADGTELTGTWTMEGNKLVGKFKRVDNGKELIAVREISGNELIQTYTYEGVEAKRIFKKE
modifications: PEPTIDE (1)...(131) wild-type rat intestinal fatty acid binding protein
[1]
  DR/DR AA: 0.238
[2]
  DR/DR LNA: 0.522
[3]
  DR/DR LA: 0.430
[4]
  DR/DR OA: 0.211
[5]
  DR/DR PA: 0.223

B14: 36V, 72A (protein, listed as Rattus norvegicus)
chain: AFDGTWKVDRNENYEKFMEKMGINVVKRKLGAHDNVKLTITQEGNKFTVKESSNFRNIDVVFELGVDFAYSAADGTELTGTWTMEGNKLVGKFKRVDNGKELIAVREISGNELIQTYTYEGVEAKRIFKKE
modifications: PEPTIDE (1)...(131) wild-type rat intestinal fatty acid binding protein
[1]
  DR/DR AA: 1.026
[2]
  DR/DR LNA: 1.082
[3]
  DR/DR LA: 1.062
[4]
  DR/DR OA: 0.869
[5]
  DR/DR PA: 0.713

B15: 31T, 72A (protein, listed as Rattus norvegicus)
chain: AFDGTWKVDRNENYEKFMEKMGINVVKRKLTAHDNLKLTITQEGNKFTVKESSNFRNIDVVFELGVDFAYSAADGTELTGTWTMEGNKLVGKFKRVDNGKELIAVREISGNELIQTYTYEGVEAKRIFKKE
modifications: PEPTIDE (1)...(131) wild-type rat intestinal fatty acid binding protein
[1]
  DR/DR AA: 0.143
[2]
  DR/DR LNA: 0.510
[3]
  DR/DR LA: 0.215
[4]
  DR/DR OA: −0.024
[5]
  DR/DR PA: 0.145

B16: 49I, 72A (protein, listed as Rattus norvegicus)
chain: AFDGTWKVDRNENYEKFMEKMGINVVKRKLGAHDNLKLTITQEGNKFTIKESSNFRNIDVVFELGVDFAYSAADGTELTGTWTMEGNKLVGKFKRVDNGKELIAVREISGNELIQTYTYEGVEAKRIFKKE
modifications: PEPTIDE (1)...(131) wild-type rat intestinal fatty acid binding protein
[1]
  DR/DR AA: 1.796
[2]
  DR/DR LNA: 1.820
[3]
  DR/DR LA: 1.839
[4]
  DR/DR OA: 1.804
[5]
  DR/DR PA: 1.162

B17: 104N, 72A (protein, listed as Rattus norvegicus)
chain: AFDGTWKVDRNENYEKFMEKMGINVVKRKLGAHDNLKLTITQEGNKFTVKESSNFRNIDVVFELGVDFAYSAADGTELTGTWTMEGNKLVGKFKRVDNGKELINVREISGNELIQTYTYEGVEAKRIFKKE
modifications: PEPTIDE (1)...(131) wild-type rat intestinal fatty acid binding protein
[1]
  DR/DR AA: 1.018
[2]
  DR/DR LNA: 0.391
[3]
  DR/DR LA: 0.385
[4]
  DR/DR OA: 0.408
[5]
  DR/DR PA: 0.406
